What was measured:
mouse serum albumin = mouse serum albumin (mouse, UniProt P07724 25-608); assay: ELISA
human serum albumin = human serum albumin (human, UniProt P02768 25-609); assay: ELISA

Sequence of mouse serum albumin (P07724 25-608): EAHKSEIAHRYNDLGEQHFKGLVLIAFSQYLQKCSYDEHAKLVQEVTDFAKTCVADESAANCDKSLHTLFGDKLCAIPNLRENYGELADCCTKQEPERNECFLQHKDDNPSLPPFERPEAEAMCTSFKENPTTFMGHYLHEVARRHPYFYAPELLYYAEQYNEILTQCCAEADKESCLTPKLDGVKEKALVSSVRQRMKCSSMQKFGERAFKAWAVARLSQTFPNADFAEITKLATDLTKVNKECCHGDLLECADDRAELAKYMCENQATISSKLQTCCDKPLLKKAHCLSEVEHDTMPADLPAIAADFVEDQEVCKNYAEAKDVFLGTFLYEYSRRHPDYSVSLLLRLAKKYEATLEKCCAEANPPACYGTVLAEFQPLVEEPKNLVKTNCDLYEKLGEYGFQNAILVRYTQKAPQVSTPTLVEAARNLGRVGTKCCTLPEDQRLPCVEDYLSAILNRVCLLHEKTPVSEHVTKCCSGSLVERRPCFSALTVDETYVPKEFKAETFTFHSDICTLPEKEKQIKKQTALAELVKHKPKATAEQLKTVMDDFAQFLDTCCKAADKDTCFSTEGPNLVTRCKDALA

B1: Bilayer HEX-D3-ASA (designed binder)
chain: DLGKKLLQAARAGQLDEVRELLKAGADVNAKDQEGITPLHVAAHQGHLEIVEVLLKAGADVNAKDVWGRTPLHLAAWRGHLEIVEVLLKAGADVNAKDHAGATPLHAAALSGHLEIVEVLLKAGADVNAQDKSGKTPADLAARAGHQDIAEVLQKAAGGGSGGGSGGGSGGGSDLGKKLLEAARAGQDDEVRELLKAGADVNAKDYFSHTPLHLAARNGHLKIVEVLLKAGADVNAKDFAGKTPLHLAANEGHLEIVEVLLKAGADVNAQDIFGKTPADIAADAGHEDIAEVLQKAAGGGSGGGSGGGSGGGSGELKAIAQELKAIAKELKAIAWELKAIAQGAGGGGSGGGSGGGSGGGSDLGKKLLQAARAGQLDEVRELLKAGADVNAKDQEGITPLHVAAHQGHLEIVEVLLKAGADVNAKDVWGRTPLHLAAWRGHLEIVEVLLKAGADVNAKDHAGATPLHAAALSGHLEIVEVLLKAGADVNAQDKSGKTPADLAARAGHQDIAEVLQKAAGGGSGGGSGGGSGGGSDLGKKLLQAARAGQLDEVRELLKAGADVNAKDQEGITPLHVAAHQGHLEIVEVLLKAGADVNAKDVWGRTPLHLAAWRGHLEIVEVLLKAGADVNAKDHAGATPLHAAALSGHLEIVEVLLKAGADVNAQDKSGKTPADLAARAGHQDIAEVLQKAA
Kd (mouse serum albumin): 124 nM
Kd (human serum albumin): 7.9 nM

B2: HEX-D3-ASA (designed binder)
chain: DLGKKLLEAARAGQDDEVRELLKAGADVNAKDYFSHTPLHLAARNGHLKIVEVLLKAGADVNAKDFAGKTPLHLAANEGHLEIVEVLLKAGADVNAQDIFGKTPADIAADAGHEDIAEVLQKAAGGGSGGGSGGGSGGGSGELKAIAQELKAIAKELKAIAWELKAIAQGAGGGGSGGGSGGGSGGGSDLGKKLLQAARAGQLDEVRELLKAGADVNAKDQEGITPLHVAAHQGHLEIVEVLLKAGADVNAKDVWGRTPLHLAAWRGHLEIVEVLLKAGADVNAKDHAGATPLHAAALSGHLEIVEVLLKAGADVNAQDKSGKTPADLAARAGHQDIAEVLQKAA
Kd (mouse serum albumin): 24.4 nM
Kd (human serum albumin): 2.82 nM
